Values of other authors in paper PMC10364474.
pKd: −log10 of the molar value.

Molecular target: integrin α5β1 (Homo sapiens) (UniProt P08648)
Chain of UniProt P08648 (P08648 42-995, chain 1 of 2): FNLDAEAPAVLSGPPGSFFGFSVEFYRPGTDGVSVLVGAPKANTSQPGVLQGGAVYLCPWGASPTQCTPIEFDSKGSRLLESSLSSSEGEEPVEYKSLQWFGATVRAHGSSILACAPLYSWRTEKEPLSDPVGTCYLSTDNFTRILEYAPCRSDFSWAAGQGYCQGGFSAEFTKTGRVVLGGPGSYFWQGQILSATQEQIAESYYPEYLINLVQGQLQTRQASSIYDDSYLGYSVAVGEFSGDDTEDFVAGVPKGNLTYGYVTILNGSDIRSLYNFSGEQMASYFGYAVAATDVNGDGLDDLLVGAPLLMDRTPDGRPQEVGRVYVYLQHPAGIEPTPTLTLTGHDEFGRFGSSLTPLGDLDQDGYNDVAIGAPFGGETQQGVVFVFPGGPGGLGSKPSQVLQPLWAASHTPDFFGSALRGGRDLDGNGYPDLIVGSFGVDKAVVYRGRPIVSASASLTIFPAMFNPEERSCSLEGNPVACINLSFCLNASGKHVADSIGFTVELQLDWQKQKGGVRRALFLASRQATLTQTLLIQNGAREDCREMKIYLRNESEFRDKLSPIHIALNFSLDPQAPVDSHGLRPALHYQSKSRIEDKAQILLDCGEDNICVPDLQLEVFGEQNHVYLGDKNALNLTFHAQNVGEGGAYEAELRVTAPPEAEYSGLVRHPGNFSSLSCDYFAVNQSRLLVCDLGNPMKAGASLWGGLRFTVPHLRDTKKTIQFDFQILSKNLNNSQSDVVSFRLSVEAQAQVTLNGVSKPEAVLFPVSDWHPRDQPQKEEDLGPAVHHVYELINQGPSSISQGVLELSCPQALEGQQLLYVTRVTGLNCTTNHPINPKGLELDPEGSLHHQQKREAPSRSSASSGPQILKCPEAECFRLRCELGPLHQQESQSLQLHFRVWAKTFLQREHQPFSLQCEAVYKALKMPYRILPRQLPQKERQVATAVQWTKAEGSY
Chain of UniProt P08648 (P05556 21-728, chain 2 of 2, further chain): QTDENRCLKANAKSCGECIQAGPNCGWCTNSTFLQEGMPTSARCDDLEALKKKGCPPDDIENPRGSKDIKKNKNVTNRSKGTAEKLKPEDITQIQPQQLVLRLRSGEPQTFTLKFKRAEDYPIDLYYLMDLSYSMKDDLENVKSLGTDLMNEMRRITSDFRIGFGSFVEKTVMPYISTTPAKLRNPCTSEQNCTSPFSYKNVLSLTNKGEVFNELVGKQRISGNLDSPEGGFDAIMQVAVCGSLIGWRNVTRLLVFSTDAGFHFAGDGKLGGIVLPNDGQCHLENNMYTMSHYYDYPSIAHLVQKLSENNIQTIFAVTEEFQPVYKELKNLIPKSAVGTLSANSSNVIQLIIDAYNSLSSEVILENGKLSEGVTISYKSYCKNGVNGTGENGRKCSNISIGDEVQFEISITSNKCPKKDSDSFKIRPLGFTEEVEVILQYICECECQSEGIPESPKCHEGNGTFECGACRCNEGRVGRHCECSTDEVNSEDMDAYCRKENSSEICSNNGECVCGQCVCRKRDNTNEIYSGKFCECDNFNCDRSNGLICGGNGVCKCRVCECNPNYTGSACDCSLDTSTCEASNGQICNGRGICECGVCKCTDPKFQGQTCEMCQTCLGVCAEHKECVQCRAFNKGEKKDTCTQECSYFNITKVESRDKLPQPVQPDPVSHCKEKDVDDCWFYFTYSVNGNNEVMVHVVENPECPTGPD

**Q.** With “Fibrinogen alpha chain RGD 572-574 (from UniProt P02671)” as the substance, how does the pKd read?
**A.** Its pKd is 7.19.
